Experimental data taken from publication PMC12631009, “Dominant‐Negative Effects of p53 R337 Variants in Li–Fraumeni Syndrome: Impact on Tetramer Formation and Transcriptional Activity” (Chembiochem, 2025).

Target: T1, Biotin-(Aca)2-p53TD (biotin-labeled WT p53 tetramerization domain peptide, residues 319-358) (human, biotin conjugated at the N-terminus with two residues of aminocaproic acid (Aca) as a linker)
T1 construct: p53 tetramerization domain, human, residues 319-358; Held on NeutrAvidin beads in the pull-down; also called Bio-(Aca)2-p53TD; biotin-labeled WT p53TD; source: synthetic peptide (solid-phase synthesis, reverse-phase HPLC purified); not shown: biotin, N-terminal, kept
T1 peptide: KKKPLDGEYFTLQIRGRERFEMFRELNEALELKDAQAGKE
Assay: pull-down; avidin-biotin pull-down: Bio-(Aca)2-p53TD mixed with nonbiotinylated peptide at equimolar concentrations (10 μM) in 50 mM Na phosphate buffer (pH 7.5), 100 mM NaCl; boiled 5 min, cooled to promote hetero-oligomerization; bound to NeutrAvidin beads at 4 °C for 2 h; eluted with 80% acetic acid; peptides quantified by reverse-phase HPLC; result as ratio of peptide pulled down to biotinylated p53TD
Settings: both partners purified

B1: WT p53TD peptide (residues 319-358 of human p53), nonbiotinylated (peptide)
peptide: T1 peptide
notes: p53 tetramerization domain, human, residues 319-358; source: synthetic peptide (solid-phase synthesis, reverse-phase HPLC purified)
ratio of peptide pulled down to biotinylated p53TD: 0.81
